Consider 1 molecule from patent publication US20240352121A1 (NEXTCURE, published 2024).

The EC50 is the concentration needed to bring the measured effect to its halfway point. A high value points to lower potency in that assay. In general, Kd refers to the equilibrium constant for the complex coming apart. High values mean weaker binding, low ones tighter binding.

The target of assay [1] is human LAIR-1 fused to the zeta chain of CD3, on UT-140 reporter cells (human, UniProt P20963 31-164). The assay can be described thus: cell-based or functional assay.
For assay [2], the target named is T1, human LAIR-1 expressed on cells (293T cells overexpressing human LAIR-1; leukemic cells) (human, UniProt Q6GTX8 22-287).
T1 construct: also called human LAIR-1 cells
T1 chain: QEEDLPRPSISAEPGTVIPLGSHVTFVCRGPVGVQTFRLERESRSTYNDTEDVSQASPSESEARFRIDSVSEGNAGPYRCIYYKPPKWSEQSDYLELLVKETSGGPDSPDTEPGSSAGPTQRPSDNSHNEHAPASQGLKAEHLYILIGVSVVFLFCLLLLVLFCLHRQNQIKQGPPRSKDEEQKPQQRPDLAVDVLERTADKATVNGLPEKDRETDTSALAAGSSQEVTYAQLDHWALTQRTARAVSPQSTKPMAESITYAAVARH
The assay is described as follows: cell binding, human LAIR-1 cells (FIG. 20A).

For assay [3], the target named is T2, LAIR-1 (human; form used for the KD not stated) (human, UniProt Q6GTX8 22-165, limits assumed).
T2 construct: also called Leukocyte Associated Immunoglobulin Like Receptor 1
T2 chain: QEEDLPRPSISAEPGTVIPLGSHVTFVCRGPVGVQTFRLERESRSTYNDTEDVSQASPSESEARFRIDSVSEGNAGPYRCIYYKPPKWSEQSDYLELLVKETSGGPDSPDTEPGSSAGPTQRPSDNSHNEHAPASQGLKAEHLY
The assay can be described thus: method not stated (in vitro activity listed in the legend of FIG. 20).

B1: h11B3 LAIR-1 mAb, Anti-LAIR-1 Variant 6 (h11B3 VL-2 / h11B3 VH-3) (antibody, V domains shown)
VH: EVQLVESGGGLVQPGGSLKLSCAASGFTFNTNAMYWVRQAPGKGLEWVGRIRSKSSNYATYYAASVKGRFTISRDDSKNTLYLQMNSLKTEDTAVYYCVRGGSGFFAYWGQGTLVTVSS
VL: DIQMTQSPSSLSASLGDRVTITCKASEDIYIRLAWYQQKPGKAPRLLISTATSLETGVPSRFSGSGSGTDYTFTISSLQPEDIATYYCQQYWSTPYTFGGGTRLEIK
notes: In the MV4-11 staining the mAb was AF647-conjugated; also called h11B3v6; humanized 11B3 LAIR-1 mAbs
On to B1, for which the “blocks signaling IC50” value in assay [1] is 0.25 nM. For the same molecule, the EC50 in assay [2] was 0.15 nM. The Kd in assay [3] was found to be 2.1 nM.
